Reference: US20210088514A1 (ACADEMIA SINICA, published 2021)

Molecular target: T1, epithelial cell adhesion molecule (EpCAM) (UniProt P16422 24-314, limits assumed)
T1 construct: whole, on cells; also called EpCAM membrane protein
T1 sequence (looked up): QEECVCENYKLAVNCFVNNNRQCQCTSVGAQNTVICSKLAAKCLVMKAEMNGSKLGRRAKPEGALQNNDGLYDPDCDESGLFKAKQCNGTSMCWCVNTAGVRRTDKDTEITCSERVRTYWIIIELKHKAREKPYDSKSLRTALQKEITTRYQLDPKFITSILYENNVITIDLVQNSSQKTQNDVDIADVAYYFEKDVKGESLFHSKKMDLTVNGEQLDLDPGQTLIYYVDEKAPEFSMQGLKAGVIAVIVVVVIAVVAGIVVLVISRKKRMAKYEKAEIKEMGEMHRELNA
Experiment: capture of HCT116 and SAS cells on antibody surface coating, colorimetric read-out at OD 490 nm
Experimental: The binding specificity of biotinylated OC9801 antibody, biotinylated EpAb4-1 antibody and biotinylated EpCam antibody (commercially available from R&D system, USA) were examined using the HCT116 (colorectal) CTCs and SAS (tongue) CTCs.
The CTC binding specificy of the antibodies was determined by colorimetric method, by measuring the absorption optical density at 490 nm.

B1: biotinylated EpAb4-1 antibody (antibody, V domains shown)
VH: QIQLVQSGPELKKPGETVKISCKASGYTFTNYGMNWVKQAPGKGLKWMGWINTYTGEPTYGDDFKGRFAFSLETSASTAYLQINNLKNEDTATYFCARFGRSVDFWGQGTSVTVSS
VL: DIVMTQAAFSNPVTLGTSASISCRSSKSLLHSNGITYLYWYLQKPGQSPQLLIYHMSNLASGVPDRFSSSGSGTDFTLRISRVEAEDVGIYYCAQNLENPRTFGGGTKLEIK
modifications: biotinylated with Sulfo NHS-LC-Biotin; ratio of biotin and antibody 1.5 to 1; sites not stated
notes: Immobilised through streptavidin on the surface coating in the assay; also called bEpAb4-1; biotinylated anti-EpCam antibody
- binding result: binds
